# Measurements published in PMC2110644.
# Where two headings read alike, the source gives them in different places.
# How the values were obtained:
# Assay in all cases: co-sedimentation
# [1] = target: actin (mol wt = 43,000), platelet (human (endogenous in platelets)) (UniProt P60709)
# [2] = target: actin (mol wt = 43,000), platelet (human (endogenous in platelets)) (UniProt P60709); remark: listed apart in the source
# [3] = target: actin (mol wt = 43,000), platelet (human (endogenous in platelets)) (UniProt P60709); remark: listed apart in the source
# [4] = target: actin (mol wt = 43,000), platelet (human (endogenous in platelets)) (UniProt P60709); remark: listed apart in the source
# Chain of platelet membrane glycoprotein IIb (receptor) (P08514 32-1039): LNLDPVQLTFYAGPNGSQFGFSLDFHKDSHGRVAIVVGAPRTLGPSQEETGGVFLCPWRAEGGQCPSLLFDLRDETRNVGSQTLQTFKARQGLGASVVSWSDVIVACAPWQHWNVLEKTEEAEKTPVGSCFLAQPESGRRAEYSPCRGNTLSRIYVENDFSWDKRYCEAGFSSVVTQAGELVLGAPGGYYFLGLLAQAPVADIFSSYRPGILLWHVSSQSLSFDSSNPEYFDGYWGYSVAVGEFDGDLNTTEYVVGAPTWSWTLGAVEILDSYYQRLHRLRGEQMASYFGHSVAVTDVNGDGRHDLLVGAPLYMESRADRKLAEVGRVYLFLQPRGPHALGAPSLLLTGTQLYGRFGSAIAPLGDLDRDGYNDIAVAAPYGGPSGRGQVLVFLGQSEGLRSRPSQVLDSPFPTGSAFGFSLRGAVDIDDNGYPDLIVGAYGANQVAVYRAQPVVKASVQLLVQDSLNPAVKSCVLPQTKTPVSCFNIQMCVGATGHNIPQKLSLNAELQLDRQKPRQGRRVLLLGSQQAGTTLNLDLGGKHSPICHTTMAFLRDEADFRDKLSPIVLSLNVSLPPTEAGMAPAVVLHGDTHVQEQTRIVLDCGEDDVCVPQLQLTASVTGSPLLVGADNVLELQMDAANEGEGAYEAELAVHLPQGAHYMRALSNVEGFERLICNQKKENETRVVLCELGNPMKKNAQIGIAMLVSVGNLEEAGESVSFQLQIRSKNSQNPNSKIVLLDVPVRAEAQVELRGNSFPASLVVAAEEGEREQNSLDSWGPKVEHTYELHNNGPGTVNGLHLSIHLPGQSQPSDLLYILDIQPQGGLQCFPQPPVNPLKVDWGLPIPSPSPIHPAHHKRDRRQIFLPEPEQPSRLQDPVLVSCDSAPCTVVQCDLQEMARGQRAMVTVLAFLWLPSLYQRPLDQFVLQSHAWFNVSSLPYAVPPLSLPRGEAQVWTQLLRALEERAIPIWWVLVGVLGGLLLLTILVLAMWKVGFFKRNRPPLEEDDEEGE
# Chain of platelet membrane glycoprotein III (P05106 27-788): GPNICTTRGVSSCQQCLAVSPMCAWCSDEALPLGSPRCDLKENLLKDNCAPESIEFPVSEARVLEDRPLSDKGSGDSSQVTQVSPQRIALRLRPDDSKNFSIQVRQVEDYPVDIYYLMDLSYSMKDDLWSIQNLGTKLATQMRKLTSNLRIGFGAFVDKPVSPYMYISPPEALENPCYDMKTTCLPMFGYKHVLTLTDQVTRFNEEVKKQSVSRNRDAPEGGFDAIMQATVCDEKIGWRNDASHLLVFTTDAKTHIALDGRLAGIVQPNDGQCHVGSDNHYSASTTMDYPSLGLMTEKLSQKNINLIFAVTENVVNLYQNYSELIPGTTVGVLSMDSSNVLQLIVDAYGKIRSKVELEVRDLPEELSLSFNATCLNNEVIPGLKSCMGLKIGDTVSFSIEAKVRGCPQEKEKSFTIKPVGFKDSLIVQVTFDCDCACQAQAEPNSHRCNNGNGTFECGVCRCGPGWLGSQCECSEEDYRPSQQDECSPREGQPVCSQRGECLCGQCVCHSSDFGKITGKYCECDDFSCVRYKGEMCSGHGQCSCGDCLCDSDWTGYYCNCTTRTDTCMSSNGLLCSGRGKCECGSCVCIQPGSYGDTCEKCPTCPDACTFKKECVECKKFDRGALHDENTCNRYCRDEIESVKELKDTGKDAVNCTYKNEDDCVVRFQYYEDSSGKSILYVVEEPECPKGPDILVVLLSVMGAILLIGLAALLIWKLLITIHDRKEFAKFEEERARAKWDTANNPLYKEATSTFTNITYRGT
Substance,percent of the protein in the Triton residue [1] [%],percent of the protein in the Triton residue [2] [%],percent of the glycoprotein in the Triton residue [3] [%],percent of the glycoprotein in the Triton residue [1] [%],percent of the glycoprotein in the Triton residue [2] [%],percent of the glycoprotein in the Triton residue [4] [%]
"255,000 protein (actin-binding protein), platelet (from UniProt P21333 1-2647) (natural protein)",34.5,55.2,,,,
platelet membrane glycoprotein III (from UniProt P05106 27-788) (receptor),,,2.4,3.4,14.3,
platelet membrane glycoprotein IIb (receptor),,,5.4,7.2,26.1,3.7
